The target in assay [1] is High-density lipoprotein (HDL) particles (human) (UniProt P02647). Briefly: cell-based or functional assay.
Assay [2] has as its target Low-density lipoprotein (LDL) particles (human) (UniProt P04114). Briefly: negative-staining EM, HDL•CETP•LDL ternary complexes.
Assay [3] has the same target. The assay can be described thus: negative-staining EM, count of LDL•CETP complexes without antibody.

B1: Recombinant human CETP (cholesteryl ester transfer protein) (protein)
chain: CSKGTSHEAGIVCRITKPALLVLNHETAKVIQTAFQRASYPDITGEKAMMLLGQVKYGLHNIQISHLSIASSQVELVEAKSIDVSIQNVSVVFKGTLKYGYTTAWWLGIDQSIDFEIDSAIDLQINTQLTCDSGRVRTDAPDCYLSFHKLLLHLQGEREPGWIKQLFTNFISFTLKLVLKGQICKEINVISNIMADFVQTRAASILSDGDIGVDISLTGDPVITASYLESHHKGHFIYKNVSEDLPLPTFSPTLLGDSRMLYFWFSERVFHSLAKVAFQDGRLMLSLMGDEFKAVLETWGFNTNQEIFQEVVGGFPSQAQVTVHCLKMPKISCQNKGVVVNSSVMVKFLFPRPDQQHSVAYTFEEDIVTTVQASYSKKKLFLSLLDFQITPKTVSNLTESSSESVQSFLQSMITAVGIPEVMSRLEVVFTALMNSKGVSLFDIINPEIITRDGFLLLQMDFGFPEHLLVDFLQSLS
In the case of B1, the decrease of mean HDL particle size after 4 hours (NS-EM), HDL/CETP/LDL co-incubation without antibody in assay [1] worked out at 25.8%. In assay [2], this molecule registered a percent of LDL particles connected to HDL particles by a CETP bridge of 25%. The molecule further returned a percentage of binary complexes (LDL•CETP) without H300 in assay [3] of 38%.

The record behind these values is patent US20140328851A1.
